Measurements taken from publication PMC7476737, “Targeting 14-3-3ε-CDC25A interactions to trigger apoptotic cell death in skin cancer” (Oncotarget, 2020).
[ ]: non-standard residue; d: D form. pT = C[C@@H](OP(=O)(O)O)[C@H](N)C(=O)O; pS = N[C@@H](COP(=O)(O)O)C(=O)O

T1: 14-3-3ε (human (endogenous in SCC12B.2 and nHEK), UniProt P62258 1-255)
T1 sequence (looked up): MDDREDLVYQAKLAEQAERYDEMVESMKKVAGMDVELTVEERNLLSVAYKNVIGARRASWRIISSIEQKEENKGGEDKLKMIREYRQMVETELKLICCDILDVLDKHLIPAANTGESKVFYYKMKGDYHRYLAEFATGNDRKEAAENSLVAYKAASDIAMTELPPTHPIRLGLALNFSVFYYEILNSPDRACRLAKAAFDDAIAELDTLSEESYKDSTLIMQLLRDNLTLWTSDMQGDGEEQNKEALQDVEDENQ

B1: pS peptide (173-186 fragment of human CDC25A with phospho-Ser178) (peptide, UniProt P30304 173-186, looked up)
peptide: Ac-TQRQN[pS]APARMLSS-NH2
SMILES: CSCC[C@H](NC(=O)[C@H](CCCNC(=N)N)NC(=O)[C@H](C)NC(=O)[C@@H]1CCCN1C(=O)[C@H](C)NC(=O)[C@H](COP(=O)(O)O)NC(=O)[C@H](CC(N)=O)NC(=O)[C@H](CCC(N)=O)NC(=O)[C@H](CCCNC(=N)N)NC(=O)[C@H](CCC(N)=O)NC(=O)[C@@H](NC(C)=O)[C@@H](C)O)C(=O)N[C@@H](CC(C)C)C(=O)N[C@@H](CO)C(=O)N[C@@H](CO)C(N)=O
B2: pT peptide (501-515 fragment of human CDC25A with phospho-Thr507) (peptide, UniProt P30304 501-515, looked up)
peptide: Ac-FRTKSR[pT]WAGEKSKR-NH2
SMILES: CC(=O)N[C@@H](Cc1ccccc1)C(=O)N[C@@H](CCCNC(=N)N)C(=O)N[C@H](C(=O)N[C@@H](CCCCN)C(=O)N[C@@H](CO)C(=O)N[C@@H](CCCNC(=N)N)C(=O)N[C@H](C(=O)N[C@@H](Cc1c[nH]c2ccccc12)C(=O)N[C@@H](C)C(=O)NCC(=O)N[C@@H](CCC(=O)O)C(=O)N[C@@H](CCCCN)C(=O)N[C@@H](CO)C(=O)N[C@@H](CCCCN)C(=O)N[C@@H](CCCNC(=N)N)C(N)=O)[C@@H](C)OP(=O)(O)O)[C@@H](C)O

Target: T1, 14-3-3ε
Experiment: cell-based or functional assay

| Binder | IC50 of SCC12B.2 cell viability (neutral red assay, 0-75 μM peptide, 96 h); the pair blocked is 14-3-3ε with CDC25A [µM] |
| --- | --- |
| B1 | 29 |
| B2 | 22.6 |
